Experimental findings from patent publication US20220293215A1 are described below.

Experiment [1] concerns the target T1, I-A^b (MHCII) of murine bone marrow-derived dendritic cells from C57BL/6J mice (mouse), P14434.
T1 chain 1: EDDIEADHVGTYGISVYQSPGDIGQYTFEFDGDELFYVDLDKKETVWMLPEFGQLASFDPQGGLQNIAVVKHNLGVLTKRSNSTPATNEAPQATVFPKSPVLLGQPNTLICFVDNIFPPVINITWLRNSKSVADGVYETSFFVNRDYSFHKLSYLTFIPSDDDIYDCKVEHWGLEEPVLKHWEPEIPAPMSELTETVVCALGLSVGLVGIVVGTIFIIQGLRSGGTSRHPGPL
T1 chain 2: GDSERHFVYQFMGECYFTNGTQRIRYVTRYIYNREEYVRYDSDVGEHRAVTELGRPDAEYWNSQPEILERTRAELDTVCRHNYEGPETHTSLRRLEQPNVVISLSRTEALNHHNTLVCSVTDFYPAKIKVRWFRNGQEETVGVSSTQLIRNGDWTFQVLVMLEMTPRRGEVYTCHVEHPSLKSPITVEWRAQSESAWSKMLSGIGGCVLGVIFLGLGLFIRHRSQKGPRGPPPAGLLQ
In words: MHCII peptidomics: Y3P IP of peptide-MHCII from BMDCs exposed to live Listeria, iTRAQ LC-MS/MS. The note with it: scale: log2 fold change, Listeria 6 hr versus 10 min.

Experiment [2] has as its target T1, I-A^b (MHCII) of murine bone …. The note with it: scale: log2 fold change, Listeria 6 hr versus 10 min.

Where two headings read alike, the source gives them in different places.

Regarding ERWNEKYAQAYPNVS (modifications not checked), the logFC in experiment [1] is 0.207.

On to ESVYLSAQKENPRLFAKIETF (modifications not checked) [Listeria peptide …n… (lmo1574 (dnaE))], for which the logFC in experiment [2] was determined as 0.595.

In the case of WNEKYAQAYPNVS (modifications not checked), the logFC in experiment [1] amounted to 1.38.

Regarding WNEKYAQAYPNVSAKI (modifications not checked), the logFC in experiment [1] stood at 1.2.

VERWNEKYAQAYPNVS (modifications not checked) registered a logFC in experiment [1] of 0.285.
